These results are taken from article PMC4091835.

For orientation: Kd means the constant that tells how readily two partners part at equilibrium.

In assay [1] the target is Cdc42_(G12V)–IRSp53 complex (BAR–SH3 FRET reporter titrated first with GMP-PNP–Cdc42_(G12V)) (human) (UniProt P60953). The assay is described as follows: other fluorescence titration.
For assay [2], the target named is IRSp53 BAR–SH3 double mutant P278D P281D (human). Kind of assay: ITC. (In general: Isothermal titration calorimetry measures the heat released or taken up as one component is titrated into another.)
Assay [3] deals with IRSp53 construct BAR–SH3 (human). Kind of assay: ITC.
In assay [4] the target is BAR–SH3 FRET reporter (IRSp53 construct BAR–SH3 S452C, labelled with fluorescein maleimide and rhodamine maleimide) (human). The assay is described as follows: other fluorescence titration.
The target in assay [5] is Eps8–IRSp53 complex (BAR–SH3 FRET reporter saturated with Eps8) (human) (UniProt Q12929). Kind of assay: other fluorescence titration.

Sequence of Human Eps8 (Q12929 whole entry): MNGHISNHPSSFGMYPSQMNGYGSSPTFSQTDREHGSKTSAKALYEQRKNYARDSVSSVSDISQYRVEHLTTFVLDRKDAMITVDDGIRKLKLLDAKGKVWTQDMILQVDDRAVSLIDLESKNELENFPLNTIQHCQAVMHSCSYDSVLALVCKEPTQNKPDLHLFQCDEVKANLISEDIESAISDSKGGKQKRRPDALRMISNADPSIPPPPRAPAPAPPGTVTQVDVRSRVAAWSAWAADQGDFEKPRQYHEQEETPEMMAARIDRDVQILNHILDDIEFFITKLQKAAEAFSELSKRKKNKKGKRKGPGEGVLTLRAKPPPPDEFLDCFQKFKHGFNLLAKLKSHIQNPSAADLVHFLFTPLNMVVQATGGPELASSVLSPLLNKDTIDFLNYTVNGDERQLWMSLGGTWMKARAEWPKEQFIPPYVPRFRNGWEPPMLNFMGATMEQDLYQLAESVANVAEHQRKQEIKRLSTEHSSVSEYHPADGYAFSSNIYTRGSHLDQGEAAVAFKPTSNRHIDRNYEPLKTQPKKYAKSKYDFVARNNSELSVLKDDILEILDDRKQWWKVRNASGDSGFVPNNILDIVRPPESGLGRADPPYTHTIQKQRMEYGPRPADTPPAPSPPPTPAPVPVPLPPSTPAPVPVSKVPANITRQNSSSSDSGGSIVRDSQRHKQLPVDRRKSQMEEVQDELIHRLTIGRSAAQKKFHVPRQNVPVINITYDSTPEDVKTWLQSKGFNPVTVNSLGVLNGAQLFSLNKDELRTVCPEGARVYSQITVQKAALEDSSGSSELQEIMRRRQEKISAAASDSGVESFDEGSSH

The substance “Human Eps8 (from UniProt Q12929 1-822) (natural protein)” yielded a dissociation constant (Kd) in assay [1] of 1.1 µM.

With “Human Cdc42 residues 1–178, constitutively active mutant G12V (from UniProt P60953 1-178) (domain or fragment)”, the Kd turned out to be 10.7 µM in assay [2], 4.7 µM in assay [3], 2.4 µM in assay [4] and 10.7 µM in assay [5].
